Measured values published in patent publication US20070089183.
Positions count from the first letter of the chain named. In names and notes the source's numbering stands.

Target: CaM (endogenous calmodulin of Arabidopsis plants)

B1: DWF1(Δ518-539), full length, expressed in planta from 35S::DWF1(Δ518-539) (protein)
chain: MSDLQTPLVRPKRKKTWVDYFVKFRWIIVIFIVLPFSATFYFLIYLGDMWSESKSFEKRQKEHDENVKKVIKRLKGRDASKDGLVCTARKPWIAVGMRNVDYKRARHFEVDLGEFRNILEINKEKMTARVEPLVNMGQISRATVPMNLSLAVVAELDDLTVGGLINGYGIEGSSHIYGLFADTVEAYEIVLAGGELVRATRDNEYSDLYYAIPWSQGTLGLLVAAEIRLIKVKEYMRLTYIPVKGDLQALAQGYIDSFAPKDGDKSKIPDFVEGMVYNPTEGVMMVGTYASKEEAKKKGNKINNVGWWFKPWFYQHAQTALKKGQFVEYIPTREYYHRHTRCLYWEGKLILPFGDQFWFRYLLGWLMPPKVSLLKATQGEAIRNYYHDMHVIQDMLVPLYKVGDALEWVHREMEVYPIWLCPHKLFKQPIKGQIYPEPGFEYENRQGDTEDAQMYTDVGVYYAPGCVLRGEEFDGSEAVRRMEKWLIENHGFQPQYAVSELDEKSFWRMFNGELYEEKTEKEVREAEQAHLETAYAEAD
complementation of the dwf1 null mutant (plant phenotype): grew like the uncomplemented dwf1 mutants

B2: DWF1(V531D), full length, expressed in planta from 35S::DWF1(V531D) (protein)
chain: MSDLQTPLVRPKRKKTWVDYFVKFRWIIVIFIVLPFSATFYFLIYLGDMWSESKSFEKRQKEHDENVKKVIKRLKGRDASKDGLVCTARKPWIAVGMRNVDYKRARHFEVDLGEFRNILEINKEKMTARVEPLVNMGQISRATVPMNLSLAVVAELDDLTVGGLINGYGIEGSSHIYGLFADTVEAYEIVLAGGELVRATRDNEYSDLYYAIPWSQGTLGLLVAAEIRLIKVKEYMRLTYIPVKGDLQALAQGYIDSFAPKDGDKSKIPDFVEGMVYNPTEGVMMVGTYASKEEAKKKGNKINNVGWWFKPWFYQHAQTALKKGQFVEYIPTREYYHRHTRCLYWEGKLILPFGDQFWFRYLLGWLMPPKVSLLKATQGEAIRNYYHDMHVIQDMLVPLYKVGDALEWVHREMEVYPIWLCPHKLFKQPIKGQIYPEPGFEYENRQGDTEDAQMYTDVGVYYAPGCVLRGEEFDGSEAVRRMEKWLIENHGFQPQYAVSELDEKSFWRMFNGELYEECRKKYRAIGTFMSDYYKSKKGRKTEKEVREAEQAHLETAYAEAD
complementation of the dwf1 null mutant (plant phenotype, height): showed some degree of phenotype rescue, with round, expanded leaves but unextended petioles at the rosette stage and bushy flowering stems reaching up to 40% of the height of the wild-type plant

B3: DWF1(KYR521-523DGD), full length, expressed in planta from 35S::DWF1(KYR521-523DGD) (protein)
chain: B2 chain with K521D, Y522G, R523D, D531V
complementation of the dwf1 null mutant (plant phenotype): showed very slight phenotypic rescue
